Publication PMC3173608 (Structure(London, England:1993), 2011)

Target: the molecule itself
Experiment: SEC

B1: CsgG_(16-277) (domain or fragment)
chain: CLTAPPKEAARPTLMPRAQSYKDLTHLPAPTGKIFVSVYNIQDETGQFKPYPASNFSTAVPQSATAMLVTALKDSRWFIPLERQGLQNLLNERKIIRAAQENGTVAINNRIPLQSLTAANIMVEGSIIGYESNVKSGGVGARYFGIGADTQYQLDQIAVNLRVVNVSTGEILSSVNTSKTILSYEVQAGVFRFIDYQRLLEGEVGYTSNEPVMLCLMSAIETGVIFLINDGIDRGLWDLQNKAERQNDILVKYRHMSVPPES
stoichiometry N: 8 protomers
